Reference: paper doi:10.1101/2020.03.31.018150

Key:
[1] = target: Retromer (His10-SNAP-VPS26/VPS35/VPS29 trimer, AF488-labeled) (human) (UniProt O75436)
[2] = target: Retromer (His10-SNAP-VPS26/VPS35/VPS29 trimer, AF488-labeled) (human) (UniProt O75436); remark: listed apart in the source

percent of particles that are dimers [1]: 35% | percent of particles that are monomers [1]: 18% | percent of particles that are pentamers or higher-order oligomers up to ten [1]: 10% | percent of particles that are tetramers [1]: 13% | percent of particles that are trimers [1]: 24% | mean Retromer complexes per cluster (Retromer complexes per cluster) [2]: 2.7
Substance: Retromer (His10-SNAP-VPS26/VPS35/VPS29 trimer, AF488-labeled) (from UniProt O75436;Q96QK1;Q9UBQ0) (complex)
